From publication PMC6138625

Key:
Test in all cases: magnetic tweezers SMBA
[1] = system: IGHMBP2 helicase core (Homo sapiens); settings: no ATP; 7 pN; n=48; SMBA in helicase buffer without ATP (composition not in the material), 1-20 nM helicase, force cycles >15 pN / 7 pN / <3 pN
[2] = system: IGHMBP2/BC (Homo sapiens / Saccharomyces cerevisiae chimera); settings: no ATP; SMBA in helicase buffer without ATP (composition not in the material), 1-20 nM helicase, force cycles >15 pN / 7 pN / <3 pN
[3] = system: yUPF1 helicase domain (Saccharomyces cerevisiae); settings: no ATP; 7 pN; n=11; SMBA in helicase buffer without ATP (composition not in the material), 1-20 nM helicase, force cycles >15 pN / 7 pN / <3 pN
[4] = system: IGHMBP2-FL (Homo sapiens); settings: no ATP; 7 pN; n=27; SMBA in helicase buffer without ATP (composition not in the material), 1-20 nM helicase, force cycles >15 pN / 7 pN / <3 pN
[5] = system: UPF1 R487S (R-S) (Saccharomyces cerevisiae); settings: SMBA in helicase buffer without ATP (composition not in the material), 1-20 nM helicase, force cycles >15 pN / 7 pN / <3 pN
[6] = system: UPF1/BC (Saccharomyces cerevisiae / Homo sapiens chimera); settings: no ATP; slides; SMBA in helicase buffer without ATP (composition not in the material), 1-20 nM helicase, force cycles >15 pN / 7 pN / <3 pN

magnetic tweezers DNA hairpin gave a binding signal (s (residence time)) [1] of 20, a binding signal (s (residence time)) [2] of 9540 and a binding signal (s (residence time)) [3] of over 5500. For the same substance, the binding signal (s (residence time)) [4] was 60, the binding signal (s (residence time)) ([5]; ADPNP, sliding -0.109 nm/s, n=58) was 1630 and the binding signal (s (residence time)) ([5]; no ATP, sliding -0.063 nm/s) was 1840. For the same substance, the binding signal (s (residence time)) [6] was 930.
